{"source": "patent US20240083971A1", "about": "“IMMUNE EFFECTOR CELL COVALENT IMMUNE RECRUITING (CIR) MOLECULES AND METHODS AND USES THEREOF” (McMaster University, priority 2022, published 2024)", "molecules": {"B1": {"name": "CP-33(N-term \"Y\" insertion mutant)-linker-biotin conjugate (peptide)", "peptide": "XGYVNSCLLLPNLLGCGDD", "modifications": "not fully specified; X1 is K, Ac-K(azido), or absent (azide clicked to DBCO-peg4-biotin); disulfide bond between C7 and C16; C-terminal amidation present or absent"}, "B2": {"name": "native CP-33-linker-biotin conjugate (peptide)", "peptide": "{Biotin-PEG4′-DBCO′-azido}-VNSCLLLPNLLGCGDD", "modifications": "disulfide 4-13; not fully specified"}, "B3": {"name": "cP33-int-aryl SuFEx (peptide)", "peptide": "[Lys(N3)]VNSCLLLPNK(Benzoyl(3-SO2F))LGCDGD", "modifications": "disulfide 5-14; also: X1 azide clicked to DBCO-A647 or DBCO-biotin"}, "B4": {"name": "cP33-ct-aryl SuFEx (peptide)", "peptide": "[Lys(N3)]VNSCLLLPNLLGCDGDK(Benzoyl(3-SO2F))", "modifications": "disulfide 5-14; also: X1 azide clicked to DBCO-A647 or DBCO-biotin"}, "B5": {"name": "CP-33(C-term \"Y\" insertion mutant)-linker-biotin conjugate (peptide)", "peptide": "XVNSCLLLPNLLGCGDDY", "modifications": "not fully specified; X1 is K, Ac-K(azido), or absent (azide clicked to DBCO-peg4-biotin); disulfide bond between C5 and C14; C-terminal amidation present or absent"}}, "key": {"[1]": {"target": "T1, CD64 (Homo sapiens, UniProt P12314)", "assay": "fluorescent SDS-PAGE covalent labelling kinetics of CD64", "format": "binding", "conditions": "1.6 μM CIR, 800 nM CD64, one-phase association fit", "experimental": "Dark bands show A647 fluorescence as measured using the Cy5 channel and represent covalent CIR binding. 1.6 μM of CIR was incubated with 800 nM CD64 for different amounts of time before being run on a SDS-PAGE gel.\nThe fluorescence intensity of each band in FIG. 17A-17C was measured and then compared to the fluorescence intensity of the band at 100% fraction labelled (where the fluorescence intensity reaches a plateau) to make a fraction bound vs time graph. The curve of the graph was fitted to a one-phase association curve in GraphPad Prism 8 to find the Kobs.\nThe kinetics of the labelling reaction was also investigated using fluorescent SDS-PAGE gels similar to as described above. 1.6 μM of CIR was incubated with 800 nM CD64 for different amounts of time before being run on a SDS-PAGE gel (FIG. 17). The fluorescence intensity of each band was then measured and then compared to the fluorescence intensity of the band at 100% fraction labelled (where the fluorescence intensity reaches a plateau) to make a fraction bound vs time graph (FIG. 18). The curve of the graph was fitted to a one-phase association curve to find the Kobs."}, "[2]": {"assay": "LC-MS stability in aqueous conditions at room temperature", "conditions": "over 27 hours", "description": "The stability of the three sulfonyl fluoride variants in aqueous conditions at room temperature were then assessed using LC-MS. LC-MS measurements were taken over 27 hours and peaks on the UV chromatogram were monitored for CIR degradation (FIG. 19-21)."}, "[3]": {"target": "T1, CD64", "assay": "fluorescent SDS-PAGE covalent labelling specificity of sulfonyl fluoride CIRs (CD64, CD16, BSA)", "format": "binding", "conditions": "1.6 μM CIR-A647, 800 nM protein, 7 hours, room temperature", "experimental": "Dark bands show A647 fluorescence as measured using the Cy5 channel and represent covalent CIR binding. For each sample, 1.6 μM CIR clicked to A647 fluorescent dye was incubated with 800 nM of protein for 7 hours.\nThe specificity of the three sulfonyl fluoride CIR variations for labelling CD64 were investigated using a fluorescent SDS-PAGE assay similar to as described above (FIG. 16). 1.6 μM CIR clicked to A647 fluorescent dye was incubated with 800 nM of protein for 7 hours at room temperature in the dark. Three different proteins were assayed to test specificity: CD64, CD16, and BSA. The samples were then run on a 4-20% gradient acrylamide gel and fluorescence was measured using the Cy5 channel with an Amersham Typhoon biomolecular imager. Only covalently labelled CIR will remain bound to CD64 in SDS-PAGE giving rise to fluorescent bands."}, "[4]": {"target": "T2, CD64 on live U937 cells (Homo sapiens, UniProt P12314)", "T2 construct": "endogenous in cells", "T2 sequence (P12314 16-374)": "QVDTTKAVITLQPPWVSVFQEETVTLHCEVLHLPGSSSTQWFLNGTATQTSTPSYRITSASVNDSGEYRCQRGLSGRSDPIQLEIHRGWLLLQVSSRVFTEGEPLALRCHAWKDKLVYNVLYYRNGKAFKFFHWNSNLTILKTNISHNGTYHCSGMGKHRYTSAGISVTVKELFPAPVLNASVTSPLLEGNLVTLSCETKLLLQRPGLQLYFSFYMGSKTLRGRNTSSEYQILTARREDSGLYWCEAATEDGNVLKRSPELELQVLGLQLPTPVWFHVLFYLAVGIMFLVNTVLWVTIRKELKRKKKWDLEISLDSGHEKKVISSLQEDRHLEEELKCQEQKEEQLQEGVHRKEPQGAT", "assay": "CIR-biotin labeling of CD64 on live U937 cells detected with streptavidin-PE", "format": "cell-based", "conditions": "24 hours at 37° C. with IFNγ", "experimental": "CIR-biotin was incubated with U937 cells for 24 hours at 37° C. along with IFNγ. The cells were then washed and incubated with streptavidin-PE. The streptavidin binds tightly to the biotin on the CIR and the fluorescent PE signal was read. cP33-ct-aryl SuFEx (CT), cP33-int-aryl SuFEx (INT), cP33-nt-aryl SuFEx (NT), and a noncovalent analog were incubated at increasing concentrations.\nThe ability of the three sulfonyl fluoride CIR variants to label CD64 on the surface of live cells was assayed using CIRs clicked to a biotin handle. CIR-biotin was incubated with U937 cells for 24 hours at 37° C. along with IFNγ. Post reaction, the cells were washed and incubated with streptavidin-PE. The streptavidin binds tightly to the biotin on the CIR and the fluorescent PE signal was read using a BD LSRII flow cytometer (FIG. 24). 100X CIR not labelled with biotin was used as competitor control to assess specificity and covalency (FIG. 25)."}, "[5]": {"target": "T1, CD64", "assay": "Koff (s^-1)", "experimental": "(§1) Table printed on a drawing sheet, FIG. 8A\nHead of the field: Koff (s^-1)\n(§2) The patent's description of the figure: FIG. 8A-8B depicts results for the CP-33(N-term “Y” insertion mutant). […] (Note: the linker-biotin is attached to the azide; DBCO-Biotin not shown).\n(§3) First copying reader's note: The name cp33-nt-tyr is printed with the structure in FIG. 8B on the same sheet; per the description, the BLI kinetics were measured with its linker-biotin conjugate binding to human CD64."}, "[6]": {"target": "T1, CD64", "assay": "Kon (M^-1 s^-1)", "experimental": "as §1\nHead of the field: Kon (M^-1 s^-1)\nas §2, §3"}, "[7]": {"target": "T3, human CD64 (recombinant) (human, UniProt P12314 16-288)", "T3 chain": "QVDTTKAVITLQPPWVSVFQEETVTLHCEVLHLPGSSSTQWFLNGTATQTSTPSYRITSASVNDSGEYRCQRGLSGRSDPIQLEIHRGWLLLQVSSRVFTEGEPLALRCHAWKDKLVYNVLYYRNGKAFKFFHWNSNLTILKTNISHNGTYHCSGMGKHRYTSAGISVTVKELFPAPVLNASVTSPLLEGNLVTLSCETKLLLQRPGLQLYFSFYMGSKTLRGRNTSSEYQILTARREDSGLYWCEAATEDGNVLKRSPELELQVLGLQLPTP", "assay": "BLI; 50 nM CD64"}, "[8]": {"target": "T3, human CD64 (recombinant)", "assay": "BLI; 100 nM CD64"}, "[9]": {"target": "T3, human CD64 (recombinant)", "assay": "BLI; 200 nM CD64"}, "[10]": {"target": "T3, human CD64 (recombinant)", "assay": "BLI"}, "[11]": {"target": "T4, human CD64 (recombinant) (human, UniProt P12314 16-288, limits assumed)", "T4 construct": "Recombinant protein in solution, or biotinylated on streptavidin biosensors; Some passages print only 'CD64'; also called huCD64; biotinylated huCD64", "assay": "fluorescence SDS-PAGE covalent labelling kinetics, 1.6 µM CIR with 800 nM CD64, one-phase association fit"}, "[12]": {"target": "T3, human CD64 (recombinant)", "assay": "BLI; 25 nM CD64"}, "[13]": {"target": "T3, human CD64 (recombinant)", "assay": "BLI; 50 nM CD64"}, "[14]": {"target": "T3, human CD64 (recombinant)", "assay": "BLI; 100 nM CD64"}, "[15]": {"target": "T3, human CD64 (recombinant)", "assay": "BLI; 12.5 nM CD64"}}, "note": "Bridges are numbered along the chain shown (N, C = ends). Primed or numbered codes have the meaning given here. Where no end group is shown, it is not given here. [ ]: non-standard residue; d: D form. The star is where a group is joined. Biotin = O=C1N[C@H]2[C@H](CS[C@H]2CCCCC(=O)*)N1; Benzoyl(3-SO2F) = O=C(c1cccc(S(=O)(=O)F)c1)*; Lys(N3) = [N-]=[N+]=NCCCC[C@H](N)C(=O)O; azido = azide group (monovalent —N3); DBCO′ = not defined here; PEG4′ = not defined here", "data": [{"molecule": "cP33 int-aryl SuFEx: cP33 peptide with the sulfonyl fluoride at an internal position replacing leucine; SEQ ID NO: 14 ([Lys(N3)]VNSCLLLPNK(Benzoyl(3-SO2F))LGCDGD; disulfide 5-14; not fully specified)", "values": [{"measurement": "Kobs", "setting": "[1]", "value": "9.2e-05", "unit": "s⁻¹"}, {"measurement": "stability in aqueous conditions (degradation peaks in UV trace)", "setting": "[2]", "value": "noticeable degradation peaks by 27 hours"}]}, {"molecule": "cP33 ct-aryl SuFEx: cP33 peptide with the sulfonyl fluoride group at the C-terminus; SEQ ID NO: 12 ([Lys(N3)]VNSCLLLPNLLGCDGDK(Benzoyl(3-SO2F)); disulfide 5-14; not fully specified)", "values": [{"measurement": "covalent labelling preference for CD64 vs CD16 and BSA", "setting": "[3]", "value": "greater binding selectivity compared to the other variants"}, {"measurement": "Kobs", "setting": "[1]", "value": "6.7e-05", "unit": "s⁻¹"}, {"measurement": "covalent labelling of CD64 on live cells (streptavidin-PE signal)", "setting": "[4]", "value": "specific and effective covalent labelling of CD64 on the surface of live cells"}, {"measurement": "stability in aqueous conditions (degradation peaks in UV trace)", "setting": "[2]", "value": "some slight degradation peaks by 27 hours"}]}, {"molecule": "CC(=O)N[C@@H](CCCCN=[N+]=[N-])C(=O)NCC(=O)N[C@@H](Cc1ccc(O)cc1)C(=O)N[C@H](C(=O)N[C@@H](CC(N)=O)C(=O)N[C@@H](CO)C(=O)N[C@H]1CSSC[C@@H](C(=O)NCC(=O)N[C@@H](CC(=O)O)C(=O)N[C@@H](CC(=O)O)C(N)=O)NC(=O)CNC(=O)[C@H](CC(C)C)NC(=O)[C@H](CC(C)C)NC(=O)[C@H](CC(N)=O)NC(=O)[C@@H]2CCCN2C(=O)[C@H](CC(C)C)NC(=O)[C@H](CC(C)C)NC(=O)[C@H](CC(C)C)NC1=O)C(C)C", "note": "[cp33-nt-tyr]", "values": [{"measurement": "koff", "setting": "[5]", "value": 0.00711, "unit": "s⁻¹"}, {"measurement": "kon", "setting": "[6]", "value": 332000, "unit": "M⁻¹ s⁻¹"}]}, {"molecule": "B1", "values": [{"measurement": "Kd", "setting": "[7]", "value": 17.9, "unit": "nM"}, {"measurement": "Kd", "setting": "[8]", "value": 18.2, "unit": "nM"}, {"measurement": "Kd", "setting": "[9]", "value": 20.8, "unit": "nM"}]}, {"molecule": "B2", "values": [{"measurement": "Kd", "setting": "[10]", "value": 56, "unit": "nM"}]}, {"molecule": "B3", "values": [{"measurement": "Kobs", "setting": "[11]", "value": "9.2e-05", "unit": "s⁻¹"}]}, {"molecule": "B4", "values": [{"measurement": "Kobs", "setting": "[11]", "value": "6.7e-05", "unit": "s⁻¹"}]}, {"molecule": "B5", "values": [{"measurement": "Kd", "setting": "[12]", "value": 2.6, "unit": "nM"}, {"measurement": "Kd", "setting": "[13]", "value": 3, "unit": "nM"}, {"measurement": "Kd", "setting": "[14]", "value": 4, "unit": "nM"}, {"measurement": "Kd", "setting": "[15]", "value": 2, "unit": "nM"}]}]}
